Measurements as given in patent US20250206841A1 (ADEPT THERAPEUTICS, published 2025).
Where a chain is given by its changes, count along the chain named.

T1: mouse Trop-2 (mouse, UniProt Q8BGV3 25-270, limits assumed)
T1 construct: also called Kactus Cat #TRP-MM121
T1 sequence (looked up): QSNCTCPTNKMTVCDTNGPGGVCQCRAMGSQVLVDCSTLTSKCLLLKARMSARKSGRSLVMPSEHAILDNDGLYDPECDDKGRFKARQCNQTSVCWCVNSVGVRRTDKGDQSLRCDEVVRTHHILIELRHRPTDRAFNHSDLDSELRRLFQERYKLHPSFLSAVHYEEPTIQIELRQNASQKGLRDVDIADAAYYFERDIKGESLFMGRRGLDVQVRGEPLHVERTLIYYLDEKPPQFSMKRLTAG

T2: human Trop-1 (EpCAM) (human, UniProt P16422 24-265, limits assumed)
T2 sequence (looked up): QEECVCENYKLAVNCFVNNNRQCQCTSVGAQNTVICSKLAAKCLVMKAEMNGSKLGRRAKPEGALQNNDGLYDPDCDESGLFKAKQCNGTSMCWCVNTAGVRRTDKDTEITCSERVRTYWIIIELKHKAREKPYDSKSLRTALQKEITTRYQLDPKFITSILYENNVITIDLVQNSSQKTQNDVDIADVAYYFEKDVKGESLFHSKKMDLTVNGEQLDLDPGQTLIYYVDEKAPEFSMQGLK

T3: rat Trop-2 (rat, UniProt Q6P9Z6 25-270, limits assumed)
T3 sequence (looked up): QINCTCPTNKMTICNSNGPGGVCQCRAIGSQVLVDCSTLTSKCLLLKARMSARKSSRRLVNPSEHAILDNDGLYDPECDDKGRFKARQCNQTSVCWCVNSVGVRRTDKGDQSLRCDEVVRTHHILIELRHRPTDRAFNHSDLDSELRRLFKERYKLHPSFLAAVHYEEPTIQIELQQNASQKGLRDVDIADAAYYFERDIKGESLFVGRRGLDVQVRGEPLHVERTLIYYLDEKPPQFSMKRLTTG

T4: human Trop-2-His protein (human, UniProt P09758 27-274)
T4 construct: extracellular domain; Assay paragraphs say only 'Trop-2-His'; also called hTrop-2; Kactus Cat #TRP-HM121; not shown: His tag
T4 sequence (looked up): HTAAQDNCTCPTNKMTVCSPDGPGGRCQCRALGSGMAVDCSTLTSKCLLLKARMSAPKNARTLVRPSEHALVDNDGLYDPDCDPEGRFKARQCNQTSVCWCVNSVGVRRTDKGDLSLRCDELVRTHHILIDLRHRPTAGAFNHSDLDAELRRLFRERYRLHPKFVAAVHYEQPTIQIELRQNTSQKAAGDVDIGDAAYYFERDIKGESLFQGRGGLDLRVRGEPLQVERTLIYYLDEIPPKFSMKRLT

T5: cynomolgus Trop-2-His protein (cynomolgus, UniProt P09758 27-274 (human entry))
T5 construct: also called cynmolgus Trop-His; Kactus Cat #TRP-CM121; not shown: His tag
T5 chain: T4 sequence (looked up) with M36V, S67N, G139S, I204V

B1: 63H3 (antibody, V domains shown)
VH: QEQLKESGGGLVQPGGSLKLSCKASGFDFNSYGVSWVRQAPGKGLEWIAYIYPAFHNAYYANWVNGRFTISSDNAQNTVDLQLNSLTAADTATYFCARDAGGTDYNYNLWGPGTLVTVSS
VL: DVVMTQTPASVEVAVGGTVTLKCQASEDIESYSAWYQQKPGQPPNLLIYEASKLASGVSSRFSGSGYGTEFTLTISGVECADAATYYCQQALTIGNVDNPFGGGSEVVVR
notes: Rabbit-derived clone; LEM construct: VH + rabbit IgG CH1 + human IgG1 CH2-CH3
B2: 66A1 (antibody, V domains shown)
VH: B1 VH with S31N, A58T, N62S, D73H, V79L, D80Y, N106A
VL: DVVMTQTPASVEAAVGGTVSINCQASEDIESYLAWYQQKPGQPPKLLIYKASTLASGVSSRFKGSGSGKQFTLTISGVECADAATYYCQQVLTIGNVDNPFGGGSEVVVK
notes: as for B1
B3: 65D5 (antibody, V domains shown)
VH: B1 VH with S31A, A58T, N62T, D73H, V79L, D80Y, S85T, G102T, Y107F
VL: DIVMTQTPASVSEPVGGTVTIKCQASQSISSYLAWYQQKPGQPPKLLIYEATKLTSGVSSRFSGSGYGTEFTLTISGVECADAATYYCQQALTVGDVDNPFGGGSEVVVK
notes: as for B1
B4: 5D4 (antibody, V domains shown)
VH: QQLEESGGGLVKPEGSLTLTCKGSGFDFSGTYWMWWVRQAPGKGLEWIACIYVGSGSSTYYASWAKGRFTISSTSSTAVTLQATSLTAADTATYFCARGATNNVFMNYFNLWGPGTLVTVSS
VL: FEMTQTPSSVSEPVGGTVTIKCQASEDISSNLGWYQQKPGQPPKLLIYGASTLASGVPSRFKGSGSGTEFTLTISDLECADAATYYCQTSYYIDDGVNGFGGGTEVVVK
notes: as for B1

Biological target: T1, mouse Trop-2
Test: ELISA, similar to Table 24
Experimental: (§1) Purified antibodies were tested by ELISA to confirm their binding and affinity against human and cynomolgus Trop-2-His protein. Briefly, 96-well Maxisorp plates (Nunc) were coated with 100 μl/well of 0.5 μg/ml human (Kactus Cat #TRP-HM121, or Sino Biological, Cat #10428-HO8H) or cynomolgus Trop-2 protein (Kactus Cat #TRP-CM121, or Sino Biological, Cat #90893-CO8H) diluted in 1×PBS (GIBCO) overnight at 4° C. Plates were washed four times with 300 μl/well washing buffer (1×PBST, diluted from 20×PBST (Thermo Scientific) with distilled water)) and then blocked with 300 μl/well of blocking buffer (1×PBST/3% BSA (BSA, Sigma)) for 2 hours at RT on plate shaker at 100 rpm. Plates were washed and added with 100 μl/well of testing antibodies, which were serial diluted with assay buffer (PBST/1% BSA). The antibodies were incubated at room temperature for 2 hours on plate shaker at 100 rpm. Plates were washed. One hundred microliters (100 μl) of 1:10,000 diluted horseradish peroxidase (HRP) conjugated anti-hIgG antibody (Jackson Immuno Research) was added into each well and incubated at room temperature for 1 hour on plate shaker at 100 rpm. Plates were washed and added with 100 μl/well TMB substrate for color development in dark at room temperature for up to 10 minutes. After addition of 50 μl/well of stop solution (1N H₂SO₄), plates were read at 450 nm on a plate reader (SpectraMax M5). EC₅₀ values were calculated using Graphpad Prism. Sacituzumab govitecan, was used as positive control. Anti-HEL.hIgG1 was used as isotype control.
(§2) Similar assays were performed to test whether the exemplary antibodies of the present disclosure bind to human Trop-1 (EpCAM) or mouse Trop-2 (Kactus, Cat #TRP-MM121) or rat Trop-2 (kactus, Cat #TRP_RM121). No binding of the exemplary antibodies of the present disclosure to human Trop-1 (EpCAM) or mouse or rat Trop-2 has been detected.

binding result | Binder
no binding | B1
no binding | B2
no binding | B3
no binding | B4

Biological target: T2, human Trop-1 (EpCAM)
Test: ELISA, similar to Table 24
Experimental: as §1, §2

binding result | Binder
no binding | B1
no binding | B2
no binding | B3
no binding | B4

Biological target: T3, rat Trop-2
Test: ELISA, similar to Table 24
Experimental: as §1, §2

binding result | Binder
no binding | B1
no binding | B2
no binding | B3
no binding | B4

Biological target: T4, human Trop-2-His protein
Test: BLI (Gator Prime), LEM supernatant Ab on HFC probe
Experimental: (§3) After three times of regeneration and neutralization of HFC probe (Gator, Cat #160003), LEM transfection supernatant samples to be tested in K buffer was diluted 1:1 in K buffer and immobilized onto HFC probe. […] The association and dissociation of human or cynomolgus Trop-2-His antigen from antibody was measured on BLI machine Gator Prime. Affinity was calculated using Gator Bio analysis software. Blank control was used for reference subtraction. 1 μg/ml of Sacituzumab govitecan was used as positive control.
(§4) Table 23 below summarizes the binding affinity of exemplary anti-Trop-2 antibodies in LEM transfection supernatant samples to human and cynomolgus Trop-2 using Gator.

Kd [nM] | koff [s⁻¹] | kon [M⁻¹ s⁻¹] | Binder
0.22 | 0.00016 | 704000 | B1
0.426 | 0.00028 | 656000 | B2
0.656 | 0.00046 | 706000 | B3
0.28 | 0.0001 | 358000 | B4

Biological target: T5, cynomolgus Trop-2-His protein
Test: BLI (Gator Prime), LEM supernatant Ab on HFC probe
Experimental: as §3, §4

Kd [nM] | koff [s⁻¹] | kon [M⁻¹ s⁻¹] | Binder
0.218 | 0.00016 | 740000 | B1
0.367 | 0.00032 | 869000 | B2
0.628 | 0.00061 | 972000 | B3
0.256 | 0.0001 | 577000 | B4
